# Test results as given in US20150322152A1 (INSTITUT PASTEUR, published 2015).
# B1: anti-hFcγRI.1 monoclonal antibody (antibody, mouse IgG2a, V domains shown)
# VH: EVQLQESGPGLVQPSQSLSITCTVSGFSLTTYGVHWVRQSPGKGLEWLGMIWSGGSTDYNAAFISRLSISKDNSKSQVFFKMNSLQADDTAIYYCAREWFAYWGQGTSVTVSS
# VL: ELVMTQSPASLSASVGETVTITCRASENIYSYLAWYQQKQGKSPQLLVYSAKTLAEGVPSRFSGSGSGTQFSLKINSLQPEDFGSYYCQHHYGTPYTFGGGTKMEIK
# notes: Mouse IgG2a; IgG purified by Protein G from hybridoma supernatant; also called anti-hFcγR1.1; hFcγRI.1 mAb
# Legend:
# [1] = target: human FcγRI receptor (immobilized for SPR; form not stated) (human) (UniProt P12314); test: SPR, IgG injected onto immobilized hFcγRI
# human FcγRI receptor (immobilized for SPR; form not stated) (human), sequence (P12314 16-288 limits assumed): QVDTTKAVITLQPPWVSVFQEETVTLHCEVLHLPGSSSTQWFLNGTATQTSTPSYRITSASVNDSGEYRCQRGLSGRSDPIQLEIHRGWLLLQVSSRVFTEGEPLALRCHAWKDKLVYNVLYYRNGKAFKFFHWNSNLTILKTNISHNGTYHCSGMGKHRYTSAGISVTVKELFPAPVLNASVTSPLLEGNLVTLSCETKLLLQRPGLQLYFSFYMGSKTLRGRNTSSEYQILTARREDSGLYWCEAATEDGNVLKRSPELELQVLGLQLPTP
# [2] = target: human FcγRI receptor (immobilized for SPR; form not stated) (human) (UniProt P12314); test: SPR, IgG injected onto immobilized hFcγRI; remark: listed apart in the source
# [3] = target: human FcγRI receptor (immobilized for SPR; form not stated) (human) (UniProt P12314); test: SPR on immobilized hFcγRI (summary sentence; the table prints 41)
# [4] = target: T1, human FcγRI receptor (immobilized for SPR; form not stated) (human, UniProt P12314 16-288, limits assumed); test: method not stated
# T1 construct: also called hFcγRI; immobilized hFcγRI
# T1 sequence (P12314 16-288 limits assumed): as above
molecule,measurement,setting,value
human IgG1 (antibody),Half life,[1],3.6 min
same,Kd,[1],41 nM
same,koff,[1],0.0014 s⁻¹
same,kon,[1],35000 M⁻¹ s⁻¹
same,Ka,[2],2.5e+07 M⁻¹
same,Kd,[2],40 nM
same,Kd,[3],40 nM
mouse IgG2a (antibody),Half life,[1],4.52 min
same,Kd,[1],38 nM
same,koff,[1],0.0011 s⁻¹
same,kon,[1],36000 M⁻¹ s⁻¹
same,Ka,[2],2.5e+07 M⁻¹
same,Kd,[2],40 nM
B1,Ka,[4],1.5e+09 M⁻¹
